Experimental data from patent US20170335314, “Methods For Using Nucleic Acid Aptamers For Directed Templated Assembly” (TriBiotica LLC, published 2017).

How the values were obtained:
[1] = target: T1, streptavidin (magnetic beads) (UniProt P22629 P22629:25-183); experiment: pulldown; beads without bFab; settings: tags: immobilised on magnetic beads; chain copies: 4
Method: Aptamers were incubated with bFab (2.5-fold molar excess), then bound to SAMBs. Supernatants were taken, and the SAMBs washed 3 times. Bound material was eluted with 0.1 M NaOH, and then precipitated, washed, dried, and reconstituted before loading samples on a denaturing acrylamide gel. […] M is a size marker (top band 60 bases; aptamer bands 85 bases).
To assess binding of 10th-cycle singlet aptamers to the selective agent (the Fab target), direct binding assays were carried out. Here, single-stranded aptamer preparations (self-annealed as usual) were incubated with or without biotinylated Fab fragments in PBSM, followed by adsorption onto streptavidin magnetic beads. After this incubation period, the beads were magnetically separated, and the supernatants retained. After 3 washes of the beads, the bound material was eluted by means of 2×20 second incubations with 100 μl of 0.1 M NaOH, with the eluates immediately precipitated with 0.3 M sodium acetate and 3 volumes of ethanol. Pellets were washed with 70% ethanol, and dried. After reconstitution in 5 μl of TE, 1 μl samples were denatured in formamide and run on 10% urea (denaturing) gels. […]

[2] = target: T1, streptavidin (magnetic beads); experiment: pulldown; beads without bFab; settings: tags: immobilised on magnetic beads; chain copies: 4; remark: listed apart in the source
Method: Pellets were washed with 70% ethanol, and dried. After reconstitution in 5 μl of TE, 1 μl samples were denatured in formamide and run on 10% urea (denaturing) gels. Results of such an experiment with the candidate singlet aptamers 228/10AptR1 (see, FIG. 27 and FIG. 29) and 229/10AptL3 (see, FIG. 29) and a specific arbitrary unselected control Right-aptamer (#136; sequence corresponds to: GCAAAGACATCTGGA […] AAGGAGACTTAGAGGC (SEQ ID NO:6); where underlining indicates the 40-mer aptamer tract; remaining sequences are primer sites) are shown in FIG. 30. The supernatants from the 228/10AptR1 and 229/10AptL3 binding (but not #136) were depleted only in the presence of biotinylated Fab. Moreover, the eluted material from biotinylated Fab on the streptavidin magnetic beads was highly enriched for aptamer bands only for 228/10AptR1 and 229/10AptL3 (see, FIG. 30).
Despite successful in situ assembly of binary aptamers upon the target to which they were bound (as in Example 1), it could not be assumed that binary aptamers formed in solution would be capable of binding the same targets. This was assessed using the same aptamers as used in direct binding tests (Example 3; 228/10AptR1 and 229/10AptL3), but where the aptamers were initially ligated together by means of the same splint oligonucleotide as used in Example 1. […]

T1 sequence (P22629 25-183, one chain of several): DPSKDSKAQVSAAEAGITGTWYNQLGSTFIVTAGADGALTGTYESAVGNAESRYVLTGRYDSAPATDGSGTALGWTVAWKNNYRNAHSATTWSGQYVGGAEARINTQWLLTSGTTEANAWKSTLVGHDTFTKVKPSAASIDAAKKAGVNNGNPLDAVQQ

Row | Binder | binding result [1] | binding result [2]
1 | aptamer 228 (10AptR1) (ssDNA) DNA: GCAAAGACATCTGGACACGCCACTAAGTGGAGGTGATCTGTACTTCATTTATGAGATCGCGGCGAGGAGAAGGAGACTTAGAGGC | no binding | –
2 | aptamer 229 (10AptL3) (ssDNA) DNA: CATCTCCACCTCCATAACCCACGGACGGGCGTCTAGAGAAGTAGGCTGAAATATCGTGGCGAGAACGAGCTGTGTCCTGAAGAAA | no binding | –
3 | binary aptamer 229-228 (ligated, 170 nt) (ssDNA) DNA: CATCTCCACCTCCATAACCCACGGACGGGCGTCTAGAGAAGTAGGCTGAAATATCGTGGCGAGAACGAGCTGTGTCCTGAAGAAAGCAAAGACATCTGGACACGCCACTAAGTGGAGGTGATCTGTACTTCATTTATGAGATCGCGGCGAGGAGAAGGAGACTTAGAGGC | – | no binding
